From patent US12703730B2, “Long-acting conjugates of GLP-2 derivatives” (HANMI PHARM. CO., LTD., priority 2017, dated 2026)
One block for each compound: values may come before it. Square brackets hold non-standard residues; d marks the D form. Side chains are listed from the residue outwards. Ends that are not written are not given here. * marks the point of attachment. Acetyl(2-(4-imidazolyl)) = O=C(Cc1c[nH]cn1)*

Assays:
[1] = target: T1, human GLP-2 receptor (Homo sapiens, UniProt O95838); test: In vitro activity: cAMP accumulation (LANCE cAMP kit) in CHO-K1 cells expressing human GLP-2 receptor; format: cell-based; settings: for In vitro activity compared to human GLP-2 (%) (relative titer), GLP-2 derivative: GLP-2 derivative / Teduglutide
T1 construct: host or cells: CHO-K1
T1 sequence (O95838 1-553): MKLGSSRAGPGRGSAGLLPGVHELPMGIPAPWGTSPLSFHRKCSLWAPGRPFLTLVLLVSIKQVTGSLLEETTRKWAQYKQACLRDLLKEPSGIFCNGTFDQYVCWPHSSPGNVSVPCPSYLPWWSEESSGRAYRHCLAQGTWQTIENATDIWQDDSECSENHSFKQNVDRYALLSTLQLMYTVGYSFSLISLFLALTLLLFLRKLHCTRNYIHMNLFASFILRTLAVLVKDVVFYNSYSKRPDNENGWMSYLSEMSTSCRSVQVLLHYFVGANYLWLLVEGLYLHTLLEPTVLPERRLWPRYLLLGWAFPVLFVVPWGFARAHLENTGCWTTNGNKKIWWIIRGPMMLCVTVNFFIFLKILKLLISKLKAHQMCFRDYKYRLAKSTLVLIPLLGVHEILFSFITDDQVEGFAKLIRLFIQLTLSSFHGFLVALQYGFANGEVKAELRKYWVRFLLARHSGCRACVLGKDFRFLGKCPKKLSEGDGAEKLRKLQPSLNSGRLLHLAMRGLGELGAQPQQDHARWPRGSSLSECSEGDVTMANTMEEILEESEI
From the text: In order to measure the activities of the GLP-2 derivatives and the long-acting conjugates of GLP-2 derivatives, which had been obtained in the previous Examples, a cell line in which a GLP-2 receptor is transformed was used to measure the cell activity in vitro. The cell line is one that has been transformed to express a human GLP-2 receptor in Chinese hamster ovary (CHO)—K1, and thus is suitable for measuring the activity of GLP-2 (DiscoverX, U.S.A.).
In order to measure the activities of the GLP-2 derivatives and the long-acting conjugates thereof, human GLP-2 and Teduglutide (Gattex®, Shire) were subjected to a 3-fold serial dilution from 166.7 nM to 0.0028 nM; the GLP-2 derivatives were subjected to a 3-fold serial dilution from 500 nM to 0.0085 nM; and the long-acting conjugates of GLP-2 derivatives were subjected to a 3-fold serial dilution from 3000 nM to 0.0508 nM. The culture solution was removed from the cultured CHO-K1 cells, in which the human GLP-2 receptor is expressed, and then each of the serially diluted material was added to the cells in an amount of 5 μL, respectively. Thereafter, the buffer (5 μL) containing a cAMP antibody was added and then the cultivation was conducted at room temperature for 15 minutes. Then, a detection mix (10 μL) containing a cell lysis buffer was added thereto to dissolve the cells and reacted at room temperature for 60 minutes. The cell lysates, upon completion of the reaction, were applied to a LANCE cAMP kit (PerkinElmer, U.S.A.) to calculate the EC50 value via accumulated cAMP, and the values were compared with one another.

[2] = system: C57BL/6 mice; test: Effect of increasing in vivo intestinal weight in normal mice (Example 7); settings: 13 days, Teduglutide 7.5 & 15 nmol/kg/BID, conjugate 4.15, 7.5, 15, 30 nmol/kg/Q2D
Description: Five mice were placed in each group and autopsied after 13 days of the administrations. The small intestines were perfused, and the weight of the small intestines and the length of the villi within the small intestines were measured.

[3] = in vivo; settings: SD, rat, sc, 2.5 mg/kg
Description: (§1) 8-week-old normal rates were divided into a group administering Teduglutide (2.5 mg/kg) and a group administering the long-acting conjugate of CA GLP-2 RK (3.4K PEG) derivative (0.705 mg/kg). The test materials were subcutaneously injected once into the normal rats in each group (3 rats/group). Thereafter, whole blood was obtained by collecting blood samples from the coccygeal vein at 0.25, 0.5, 1, 1.5, 2, 3, 4, 6, 8, and 24 hours for the group administering Teduglutide; and at 4, 8, 24, 48, 72, 96, 120, 144, 168, 192, 216, 240, 264, 288, 312, and 336 hours for the group administering the long-acting conjugate of CA GLP-2 RK derivative. The whole blood was placed in a 1.5 mL microtube, centrifuged at room temperature at 5,000 rpm for 10 minutes, and then sera were separated and stored at −20° C. Concentrations of the stored sera from each group were quantified using an ELISA analysis method. For Teduglutide, a GLP-2 ELISA Kit (Alpco, #48-GP2HU-E01.1) was used. For the long-acting conjugate of CA GLP-2 RK derivative, a biotin-labeled GLP-2 polyclonal antibody (Phoenix Pharmaceuticals, #B-028-14) was bound to a plate coated with Streptavidin (Roche, #11645692001), and then reacted with the serum for 1 hour. After washing, anti-human IgG4-HPR (Alpha Diagnosis, #10124) was added thereto and allowed to react at room temperature for 1 hour. Thereafter, the resultants were subjected to a color reaction using a TMB reagent, and the absorbance was measured at a wavelength of 450 nm. Pharmacokinetic parameters thereof were calculated using the serum concentrations.

[4] = Comparison of pharmacokinetics between long-acting conjugate of GLP-2 derivative and Teduglutide in SD rat (Example 6); settings: serum, sc, 2.5 mg/kg
Description: as §1

[5] = inactivation by DPP IV; Bolette H. et al. 2000; cited from earlier work
[6] = Pharmacokinetics of long-acting conjugates of GLP-2 derivatives in SD rat (Example 5); format: in vivo; settings: normal SD rats, single subcutaneous injection 2.52 mg/kg, serum, ELISA
Description: The pharmacokinetics of the long-acting conjugates of GLP-2 derivatives were compared in normal rats.
Pharmacokinetic parameters thereof were calculated using the serum concentrations.

[7] = relative titer from cAMP EC50, CHO-K1 cells expressing human GLP-2 receptor

In vitro activity compared to human GLP-2 (%) (relative titer), GLP-2 derivative [1, 7]: 205.6%
Compound: CA GLP-2 KK: GLP-2 derivative SEQ ID NO: 3: X1 imidazoacetyldeshistidine, X2 glycine, X30 lysine, X34 lysine (XGDGSFSDEMNTILDNLAARDFINWLIQTKITDK; X1 imidazoacetyldeshistidine; GLP-2 derivative; (1) Xaa is imidazoacetyldeshistidine)

In vitro activity compared to human GLP-2 (%) (relative titer), conjugate of GLP-2 derivative ([1]; relative titer from cAMP EC50, CHO-K1 cells expressing human GLP-2 receptor, long-acting conjugates): 46.0%
Compound: Long-acting conjugate of CA GLP-2 RC (10K PEG) derivative: CA-GLP-2 RC covalently linked to the immunoglobulin Fc by 10 kDa PEG at the 34th cysteine ([Acetyl(2-(4-imidazolyl))]GDGSFSDEMNTILDNLAARDFINWLIQTRITDC([PEG 10 kDa-immunoglobulin Fc]); also: Cys34 linked via 10 kDa PEG to immunoglobulin Fc)
Activation of the GLP-2 receptor / relative potency (in words) ([1]; CHO-K1 cells expressing human GLP-2 receptor, cAMP): higher activities compared to the long-acting conjugate of GLP-2 derivative (CA GLP-2 KC)
AUClast [6]: 1384.9499 ± 186.8176 µg·h/mL
Cmax [6]: 13350.4 ± 3611.4 ng/mL
MRTlast [6]: 88.9 ± 9.4 h
T1/2 [6]: 54.4 ± 6.9 h
Tmax [6]: 26.7 ± 20.1 h

Continued, compound first:

Compound: CC[C@H](C)[C@H](NC(=O)[C@H](Cc1ccccc1)NC(=O)[C@H](CC(=O)O)NC(=O)[C@H](CCCNC(=N)N)NC(=O)[C@H](C)NC(=O)[C@H](C)NC(=O)[C@H](CC(C)C)NC(=O)[C@H](CC(N)=O)NC(=O)[C@H](CC(=O)O)NC(=O)[C@H](CC(C)C)NC(=O)[C@@H](NC(=O)[C@@H](NC(=O)[C@H](CC(N)=O)NC(=O)[C@H](CCSC)NC(=O)[C@H](CCC(=O)O)NC(=O)[C@H](CC(=O)O)NC(=O)[C@H](CO)NC(=O)[C@H](Cc1ccccc1)NC(=O)[C@H](CO)NC(=O)CNC(=O)[C@H](CC(=O)O)NC(=O)CNC(=O)[C@@H](N)Cc1c[nH]cn1)[C@@H](C)O)[C@@H](C)CC)C(=O)N[C@@H](CC(N)=O)C(=O)N[C@@H](Cc1c[nH]c2ccccc12)C(=O)N[C@@H](CC(C)C)C(=O)N[C@H](C(=O)N[C@@H](CCC(N)=O)C(=O)N[C@H](C(=O)N[C@@H](CCCCN)C(=O)N[C@H](C(=O)N[C@H](C(=O)N[C@@H](CC(=O)O)C(=O)O)[C@@H](C)O)[C@@H](C)CC)[C@@H](C)O)[C@@H](C)CC [Teduglutide]
In vitro activity compared to human GLP-2 (%) (relative titer), GLP-2 derivative [1, 7]: 147.5%
length of the villi within the small intestines [2]: increase in the length of the villi
weight of the small intestines [2]: increased in a dose-dependent manner
AUC(0-t) [3]: 2.6 ± 0.581 µg·h/mL
Cmax [3]: 1680 ± 744 ng/mL
MRT last [3]: 1.4 ± 0.1 h
Tmax [3]: 0.7 ± 0.3 h
half-life [4]: 0.6 ± 0.1 h

Compound: CA GLP-2 KC: GLP-2 derivative SEQ ID NO: 2: X1 imidazoacetyldeshistidine, X2 glycine, X30 lysine, X34 cysteine (XGDGSFSDEMNTILDNLAARDFINWLIQTKITDC; X1 imidazoacetyldeshistidine; GLP-2 derivative; (1) Xaa is imidazoacetyldeshistidine)
In vitro activity compared to human GLP-2 (%) (relative titer), GLP-2 derivative [1, 7]: 149.3%

Compound: CA GLP-2 RK: GLP-2 derivative SEQ ID NO: 4: X1 imidazoacetyldeshistidine, X2 glycine, X30 arginine, X34 lysine ([Acetyl(2-(4-imidazolyl))]GDGSFSDEMNTILDNLAARDFINWLIQTRITDK)
In vitro activity compared to human GLP-2 (%) (relative titer), GLP-2 derivative [1, 7]: 333.2%

Compound: Glucagon-like peptide-2 [GLP-2]
in vivo half-life [5]: ≤ 7 min
